Test results published in US20240352127A1.

What was measured:
[1] = target: human PD-L1 on cells (human) (UniProt Q9NZQ7); test: FACS staining of MDA-MB-231 cells with control antibody (expression profile), triplicates
[2] = target: human PD-L1 on cells (human) (UniProt Q9NZQ7); test: FACS staining of HCT116 cells with control antibody (expression profile), triplicates

human PD-L1 on cells (human), sequence (Q9NZQ7 19-290 limits assumed): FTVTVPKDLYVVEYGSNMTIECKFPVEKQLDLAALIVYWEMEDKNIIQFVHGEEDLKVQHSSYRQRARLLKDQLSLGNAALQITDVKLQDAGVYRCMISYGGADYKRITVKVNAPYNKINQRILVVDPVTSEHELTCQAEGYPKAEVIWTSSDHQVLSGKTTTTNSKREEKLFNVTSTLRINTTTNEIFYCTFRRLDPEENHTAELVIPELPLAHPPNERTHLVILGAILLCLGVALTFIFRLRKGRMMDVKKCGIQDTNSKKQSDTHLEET

anti-PD-L1 RG7446 MPDL3280A (antibody)
MFI [1]: 74600 MFI
MFI [2]: 10900 MFI
